The DeepSol protein solubility set

Assay: soluble on expression in E. coli; label from the status in PepcDB or PDB records

Row | Sequence | soluble on expression in E. coli
1 | MKTQVAIIGAGPSGLLLGQLLHKAGIDNVILERQTPDYVLGRIRAGVLEQGMVDLLREAGVDRRMARDGLVHEGVEIAFAGQRRRIDLKRLSGGKTVTVYGQTEVTRDLMEAREASGATTVYQAAEVRLHDLQGERPYVTFERDGERLRLDCDYIAGCDGFHGISSQSIPAERLKVFERVYPFGWLGLLADTPPVSHELIYANHPRGFALCSQRSATRSRYYVQVPLTEKVEDWSDERFWTELKARLPAEVAEKLVTGPSLEKSIAPLRSFVVEPMQHGRLFLAGDAAHIVPPTGAKGLNLAASDVSTLYRLLLKAYREGRGELLERYSAICLRRIWKAERFSWWMTSVLHRFPDTDAFSQRIQQTELEYYLGSEAGLATIAENYVGLPYEEIE | soluble
2 | EAAFWGASNELLHDPTMIKEGSSWYALGTGLTEERGLRVLKSSDAKNWTVQKSIFTTPLSWWSNYVPNYGQNQWAPDIQYYNGKYWLYYSVSSFGSNTSAIGLASSTSISSGGWKDEGLVIRSTSSNNYNAIDPELTFDKDGNPWLAFGSFWSGIKLTKLDKSTMKPTGSLYSIAARPNNGGALEAPTLTYQNGYYYLMVSFDKCCDGVNSTYKIAYGRSKSITGPYLDKSGKSMLEGGGTILDSGNDQWKGPGGQDIVNGNILVRHAYDANDNGIPKLLINDLNWSSGWPSY | soluble
3 | GPLGSKDTRPQTDDVLNTKGNTFEDFYLKRELLMGIFEAGFEKPSPIQEEAIPVAITGRDILARAKNGTGKTAAFVIPTLEKVKPKLNKIQALIMVPTRELALQTSQVVRTLGKHCGISCMVTTGGTNLRDDILRLNETVHILVGTPGRVLDLASRKVADLSDCSLFIMDEADKMLSRDFKTIIEQILSFLPPTHQSLLFSATFPLTVKEFMVKHLHKPYEINLMEELTLKGITQYYAFVEERQKLHCLNTLFSKLQINQAIIFCNSTNRVELLAKKITDLGYSCYYSHARMKQQERNKVFHEFRQGKVRTLVCSDLLTRGIDIQAVNVVINFDFPKTAETYLHRIGRSGRFGHLGLAINLINWNDRFNLYKIEQELGTEIAAIPATIDKSLYVAENDET | soluble
4 | MRIGVIMGGVSSEKQVSIMTGNEMIANLDKNKYEIVPITLNEKMDLIEKAKDIDFALLALHGKYGEDGTVQGTLESLGIPYSGSNMLSSGICMDKNISKKILRYEGIETPDWIELTKMEDLNFDELDKLGFPLVVKPNSGGSSVGVKIVYDKDELISMLETVFEWDSEVVIEKYIKGEEITCSIFDGKQLPIISIRHAAEFFDYNAKYDDASTIEEVIELPAELKERVNKASLACYKALKCSVYARVDMMVKDGIPYVMEVNTLPGMTQASLLPKSADAAGIHYSKLLDMIIETSLRVRKEEGF | not soluble
5 | MGLHRLIYLSCATDGLSYPDLRDIMAKSEVNNLRDGITGMLCYGNGMFLQTLEGDRQKVSETYARILKDPRHHSAEIVEFKAIEERTFINWSMRLVQLGEMDSDTIRRLRLKYSPAATFQPRSMTAEQCFRFLKELYDMSQGS | soluble
6 | MGSDKIHHHHHHMDRQKTSQTVPAGDADDGDDTSVDEKRSPLILTEQVWRKRPAYSSPLPDDKSITLSRWTIPEQPTPVEFRSDGNEDSHIITYSLRQSSVDFWMEGQRVSNGRVTPHAVLMTGPGQPGRAVFYKVFDSIRMYLPQALLAECHEGAYGRPPNQDIVLSHPHFVADQKVRHLVEALVLVDQTDGAMGRIYVDSIGLAIGARLIALHGERRNPVDRSQGLSAWRLRHVIEYIDAHLSSPIGLAELANVAGLSRMHFARRFREVTGQTPHQYVLRCRIMRAQQLLCSPALSVTDIASALAFKTTAHFSTVFRHIVGESPTQWRKRLR | not soluble
7 | MSEIINNREYRQKVLKELIRELHDGKSVEEIKPRFEELIKGISPAEISEMEQALIMEGMPVEEIQRLCDVHAAVFKGSIEEIHRPQKPEEVPGHPIHTFKLENAEIRKLVDNEIRPQLELYKNGDTAESLKKLREAFQKLWEIDKHYSRKENLLFPYLEKYGITAPPKVMWGVDDEIRADIKEINNKLSANAQNQNIPLEKAEEAVNRVIEMIFKEENILFPMALETLTEDEWAEIARASDEIGYCMITPEAEWKPARVDVVEKTQKEGVKSQENQGFVEFDAGCLTTEEINAMLNTLPIDITFVDKNDTVKYFTQGKERIFARPKTIIGRKVQNCHPPASVHIVEKIIEDLKSGKKDHEDFWIKMGEKYVYIRYFAVRNEKGEYLGTIEVTQDIAPIQKITGEKRLLSDA | soluble
8 | SMSAPAGEPPAPVRLRKNVCYVVLAVFLSEQDEVLLIQEAKRECRGSWYLPAGRMEPGETIVEALQREVKEEAGLHCEPETLLSVEERGPSWVRFVFLARPTGGILKTSKEADAESLQAAWYPRTSLPTPLRAHDILHLVELAAQYRQQARHPLIL | soluble
9 | MIIPALDLIDGTVVRLHQGDYARQRDYGNDPLPRLQDYAAQGAGVLHLVDLTGAKDPAKRQIPLIKTLVAGVNVPVQVGGGVRTEEDVAALLKAGVARVVIGSTAVKSPDVVKGWFERFGAQALVLALDVRIDEHGTKQVAVSGWQENSGVSLEQLVETYLPVGLKHVLCTDISRDGTLAGSNVSLYEEVCARYPQIAFQSSGGIGDIDDIAALRGTGVRGVIVGRALLEGKFTVKEAIQCWQNV | not soluble
10 | MSLRDYAEIAASGILRAVTEYNSISFYADGDTVSGFHYELLHAFAHSKGLKPEITPEMSFSKRLEDVQKGTYDILANSTVVTTEYKDSLLFTRPIILNKQVLVQRKPEKENDSLYIHSQLELARKTLHLVKNSPAILRIHNLSNEIGDTIYIKEVEKYGQEQLLAMVAHGDIDYAVCDESIAKASINDFPQLDIETAISFSQFYSWGVSKHSPILLDSLNSWLNDYVKTPAFKLLRKKYYNNEGHHHHHH | soluble
11 | MSLATKDPTAVERANLLNMAKLSIKGLIESALSFGRTLDSDYPPLQQFFVVMEHCLKHGLKGRKSFLSYNKTIWGPLELVEKLYPEAEEIGASVRDLPGLKTPLGRARAWLRLALMQKKMADYLRCLIIQRELLSEFYEYHALMMEEEGAVIVGLLVGLNVIDANLCVKGEDLDSQVGVIDFSMYLKNEEGHHHHHH | soluble
12 | MSLDSKIDILIVVNMFLTGFDSKVLNTLYVDKNLMYHDLIQAYSRTNRVEKESKPFGKIVNYRDLKKETDDALRVFSQTNDTDTILMRSYEEYKKEFMDAYRELKMIVPTPHMVDDIQDEGHHHHHH | not soluble
13 | VNKKDITYWEKRQERKYLAGEKKLDEYYKGLQKAFRQAKREIQSVINDFYMRYAKENKVSYAEAQKLLDKAEIGELQDFIDLVNKNMGKYNRKLNNMSIKARITRYQALEKQIDAILQQLYAIEYEYKGKELLKEVYEDSYYRTWFNIDQYHGFHQEFAQINPRTIEELIKYPWNGASFSDRIWKQKDHMLQVLKEDITTMLIQGKNPQTLARDFARRFKTKEYEAYRLLHTESSFIIEQGTLAAYKEDGVEKYQILATLDMRTSDICRSEDGKIYDVDEATVGVNYPPYHPFCRTTTVPYYEDAEVGTRVARDPVTGRSYEVPANMTYEQWKNRYIDQPDNIIRQEILSNPERLDNYSIQHYNKHKEGTKQYEQYKQSRLKKGQTEQSSLLISYDEAKEIIKKYAGTGVFSRDRKGKWRNEEFVDVDSIIGVVHNIDGTVTPTNRIQIKYGKNSVHIVPVLPRKERNK | soluble
14 | SVRTACKSRAVSSGKQTGKWQSWSDAGVLTVFECEGLKLILNTWTPIPFSPFPVHHLFTPMLIGRLCGTRIETLALIHGGISLPATALRSPNSGVKLPLLVSPLFPMETTPSALRLLSSHKAESGSPTLFTLVHLLPLLLQ | soluble
15 | MSKVAMVTGGAQGIGRGISEKLAADGFDIAVADLPQQEEQAAETIKLIEAADQKAVFVGLDVTDKANFDSAIDEAAEKLGGFDVLVNNAGIAQIKPLLEVTEEDLKQIYSVNVFSVFFGIQAASRKFDELGVKGKIINAASIAAIQGFPILSAYSTTKFAVRGLTQAAAQELAPKGHTVNAYAPGIVGTGMWEQIDAELSKINGKPIGENFKEYSSSIALGRPSVPEDVAGLVSFLASENSNYVTGQVMLVDGGMLYN | soluble
16 | MTTKDEVKTLWKLCFNDSDEFTDLYFKMRYKDEVNRVIREDGKIISALQMIPYPMTFCDEVISTSYISGACTHPDYRKHGAMKRLLKETHRCMYEDGVLLASLIPAEEWLFGYYARSGYAPVFGYAVEQVRVDRLCPAPGCRIEVCEFPGVEHYHYFDSRMHGRRSCIQHPKEDFLVIMADLRLGNGKLLVAWEADKIVGMAFTVMGDDTLYIKELLADTDAVQDTLLYEAAHIYKVQRMDYFIPSSADTLFLGMARVIRAEELLKVFAHKYPASELYIHIEGDEAIQENNGYYTVRDGFCFRERVPEKKYHTYTLDGFTRLLLEAEHPYMSLMLN | soluble
17 | MKKRVHILIMTLMLIVACVGCSGSSDNPPPANSLHSASTIPISAMPSFSTPSPTVEDTENQQSKTVNYLINSMTLEEKIGQIFIVAFRKGKSSRPLKVLDNSTKLKIQNFNPGGIILFSENIDTIPQTQKLIRDMQEASKIPMFIAVDEEGGRIARIGNNPKMHSTKIPSAQTIGLADDPELAYEAGRILGAELSALGFNMNFAPVADVNTNPDNPVIGDRSFGSDPYKVGLMVQAMSKGMQEQNVCTVLKHFPGHGDTSYDSHLGQVVINHDIERLRQIELTPFKMGIKAGADGVMTAHIIMPNITGSNLPATLSEEILSGLLRNELKHEKLIITDAMEMKAISNYWSSSKAAVMAFKAGADIILMPESFEEAYNGILKAVKDGEITEERLNQSLQRILALKFERNILANKESSVDPEKVLGRQEHTDIVVKIMQKAEEQNIP | not soluble
18 | MAHHHHHHMNVKVEEGHPYNSYAEIKKRKTKKKKYIQNGRAGNNVEDNVDDNVEDNVGNNVDDNVEDNVGNNVDDNVDNNVDDNVKNRLSPKNNEKSNPRHKKKNTSKSPICDGRKKDIEFHTLYESDEKNNMVSRRSSVESIGEEKDMKADVKKNDINYKVKLNTLMLQSYLHKSYDKVSNILKKTSQTFMKKSLSYETEKVDDKTGNNIQNNNNEKNETHGNINYDQDDFVQNFNKIFNNMIENPTNDLSEEEKKFFEQNSQCINKMLHENASCQKNKKEKILKKYKKKIIENKDISSLYDKFKELLDERTLLFKLIIYYKNINYNYKQHIDKIQHSYDILISENEQLNLNNITLKKHIDLFRKGDNIKRDDNEYVK | soluble
19 | STRDDDDDEDDEEEEDSGAWGRESYAFDGFHPTEEFGFSFSPRGGMRFHGNFGFDDLVRDFNSIFSEMGAWTLPSHSPELPGPESETPGVRLREGQTLRDSMLKYPDSHQPRIFEGVLESHAKPESSKPAPDWGSQGPFHRLDDTWPVSPHSRAREDKDLDSQVSQEGLGPLLQPQPKSYFKSISVTKITKPDGTVEEHRTVVDGEGRRETTVTHQEAHDSSRSDPDPPRSSALDDPFSILDLLLGRWFRSR | soluble
20 | MSLDISKKSLLTPAEAAKLLHVAPTTIRHWAQIGRLPFISTPGGHRRFDRNDILSLMSTPKINVKNDFSILIIEDDKEFADMLTQFLENLFPYAKIKIAYNPFDAGDLLHTVKPDVVMLDLMMVGMDGFSICHRIKSTPATANIIVIAMTGALTDDNVSRIVALGAETCFGKPLNFTLLEKTIKQLVEQKKATSEGHHHHHH | soluble
21 | MIFDGHSDTWADVTIRRLNGEKDVFRRIHLDNFKRANIEGAIFVIWIDPPYDKEPEKRVKQIISSIKDEIEDMKDVVNIVKKYSDIDKGISENKINILIGLEGLSHIGRNIDLLDYFYKEVGARHASLTWNEQNELATGCLGDENRGLTEIGKKAVNKMEKLGMIVDVSHLNEKSFWDLMSVASKPVIASHSNARSLCDAKRNLTDNQLKEISNTGGLVGINSFRGFTNSNPKKQDLIHLVDHIDYMVNLIGIEHVSFGFDFSDYLGKETIGSFTGNASVPSVDGLESTHTAQNIVVELENRGYKKKDIELISSGNFYRLFKDILK | not soluble
